The target of test [1] is T1, human Fes SH2-kinase unit (residues I448 to the C terminus), unphosphorylated (human, UniProt P07332-1 448-822).
T1 construct: Fes tyrosine kinase, human, NP_001996; linker N terminal to the SH2 domain, SH2 domain and C-terminal kinase domain; residues I448 to the C terminus; Crystallised with staurosporine; also called SH2-kinase polypeptide; unphosphorylated Fes; source: E. coli BL21(DE3)-R3, coexpressed with YopH tyrosine phosphatase, purified
Briefly: crystal structure; sitting drops; Fes SH2-kinase with staurosporine (1 mM) and peptide Ac-IYESL (250-300 uM); form II from 20% PEG 3350, 0.1 M sodium malate; form III from 30% mPEG 2000, 0.15 M NaBr. Conditions: both partners purified.

Test [2] concerns the target T2, human Fes SH2-kinase unit (residues I448 to the C terminus), autophosphorylated on Y713 (human, UniProt P07332-1 448-822, phosphotyrosine at 713).
T2 construct: Fes tyrosine kinase, human, NP_001996; Crystallised with staurosporine; also called pY713-Fes; phosphorylated Fes; source: E. coli BL21(DE3)-R3, coexpressed with YopH, purified; autophosphorylated in vitro, purified by gel filtration
Described as above. To be noted: both partners purified.

The values that follow come from PMC2572732, “Structural Coupling of SH2-Kinase Domains Links Fes and Abl Substrate Recognition and Kinase Activation” (Cell, 2008).

No end group written: not given here.

T2 sequence (P07332 448-822): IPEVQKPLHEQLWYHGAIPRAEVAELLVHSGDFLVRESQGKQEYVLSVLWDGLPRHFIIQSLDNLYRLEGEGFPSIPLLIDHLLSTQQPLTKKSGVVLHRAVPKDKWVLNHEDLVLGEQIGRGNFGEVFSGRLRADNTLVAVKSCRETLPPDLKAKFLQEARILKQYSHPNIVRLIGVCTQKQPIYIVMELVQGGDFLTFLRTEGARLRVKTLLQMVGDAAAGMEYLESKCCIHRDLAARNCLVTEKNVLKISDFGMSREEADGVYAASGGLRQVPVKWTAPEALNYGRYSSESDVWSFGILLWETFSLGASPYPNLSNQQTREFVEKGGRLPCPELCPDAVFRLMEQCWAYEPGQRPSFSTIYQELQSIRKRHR
T1 sequence (P07332 448-822): as above

B1: Fes kinase consensus substrate peptide Ac-IYESL (peptide)
peptide: Ac-IYESL
notes: consensus substrate peptide of the Fes kinase, derived from peptide library and array screens; also called consensus peptide; source: synthetic peptide
For B1, the binding result in test [1] and in test [2] was “binds” throughout.
